Target: T1, Proliferating Cell Nuclear Antigen (PCNA), wild type, cellular (cytosolic PCNA of human neutrophils) (human, UniProt P12004 1-261)
T1 construct: Endogenous protein in human neutrophil cytosol in the co-immunoprecipitations; Expressed from pcDNA3-PCNA in PLB985 cells in the caspase-9 activity row; also called cytoplasmic PCNA; PLB985-PCNA (overexpressed form)
Assay: co-immunoprecipitation from neutrophil cytosol, western blot

T1 sequence (P12004 whole entry): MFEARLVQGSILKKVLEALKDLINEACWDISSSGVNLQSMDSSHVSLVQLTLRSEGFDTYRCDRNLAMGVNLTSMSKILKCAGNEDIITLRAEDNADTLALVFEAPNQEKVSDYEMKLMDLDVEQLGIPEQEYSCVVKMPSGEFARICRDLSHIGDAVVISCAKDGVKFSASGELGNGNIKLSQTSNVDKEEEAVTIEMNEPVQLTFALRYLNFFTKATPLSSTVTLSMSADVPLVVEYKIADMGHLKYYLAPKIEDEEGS

binding result: no binding
B1: Bid (other, human, UniProt P55957 1-195, looked up)
chain: MDCEVNNGSSLRDECITNLLVFGFLQSCSDNSFRRELDALGHELPVLAPQWEGYDELQTDGNRSSHSRLGRIEADSESQEDIIRNIARHLAQVGDSMDRSIPPGLVNGLALQLRNTSRSEEDRNRDLATALEQLLQAYPRDMEKEKTMLVLALLLAKKVASHTPSLLRDVFHTTVNFINQNLRTYVRSLARNGMD
